The text below walks through data of article PMC8044456, “Tandem UGT71B5s Catalyze Lignan Glycosylation in Isatis indigotica With Substrates Promiscuity” (Frontiers in Plant Science, 2021).

Common to all, as to assay: LC/MS glucosylation assay, Lineweaver-Burk
Common to all, as to type: biochemical, Isatis tinctoria
Common to all, as to settings: 2 mM UDP-glucose, 20–200 μM acceptor, 100 mM phosphate pH 8.0, 30°C

Substrate in data set [1]: COc1cc(C[C@H]2COC(=O)[C@@H]2Cc2ccc(O)c(OC)c2)ccc1O
The source says:
(§1) LC/MS glucosylation assay, Lineweaver-Burk on IiUGT71B5b

Substrate in data set [2]: Oc1cc2c(cc1[C@H]1OC[C@H]3[C@@H]1CO[C@@H]3c1ccc3c(c1)OCO3)OCO2
Text: as §1

Substrate in data set [3]: COc1cc([C@@H]2OC[C@@H]3[C@H]2CO[C@H]3c2ccc(O)c(OC)c2)ccc1O
The source says: (§2) LC/MS glucosylation assay, Lineweaver-Burk on IiUGT71B5a

Substrate in data set [4]: [H][C@@]1(Oc2ccc([C@H]3OC[C@]4([H])[C@@H](c5ccc(O)c(OC)c5)OC[C@]34[H])cc2OC)O[C@H](CO)[C@@H](O)[C@H](O)[C@H]1O
Text: as §2

Substrate in data set [5]: COc1cc(C[C@@H](CO)[C@H](CO)Cc2ccc(O)c(OC)c2)ccc1O
Text: as §2

Substrate in data set [6]: COc1cc(C[C@H]2COC(=O)[C@@H]2Cc2ccc(O)c(OC)c2)ccc1O
Text: as §2
This is another data set of the same source.

Substrate in data set [7]: Oc1cc2c(cc1[C@H]1OC[C@H]3[C@@H]1CO[C@@H]3c1ccc3c(c1)OCO3)OCO2
Text: as §2
This is another data set of the same source.

Substrate in data set [8]: COc1cc(C[C@H]2CO[C@H](c3ccc(O)c(OC)c3)[C@H]2CO)ccc1O
Text: as §2

B1: IiUGT71B5b (Isatis tinctoria) (protein)
chain: MKIELVFMPSPGIGHLRSTVQLAKQLVNGDDRLSITVIIIPRSSGGDATDSAQISSLFTASQDRLRYESISVADEPTTNRLPTQHYIASQKPQVRDAVAKLIDPTRVDSPPRLAGFVVDMFCISMIDLADEFGVPTYMVYTSNARFLGITLHLQLMIDEKKYDATELDESVNELEFPCLTRPYPVDCLPHILISKDYLFMDQARSYRKMKGILVNTVAELEPHALELFSGDGDLPRAYPVGPVLHLESRSDHSNDDGKQSEILRWLDEQPAKSVVFLCFGSMGGFNEEQAREIAVALDRSGHRFLWSLRRASPDIMKEGPRDYTNLDEVLPEGFLDRTSERGKIIGWAPQAAVLAKPAIGGFVTHCGWNSMLESLWFGVPTVTWPLYAEQKVNAFEMVEELGLAVEIRRSLKGDLMFGGMETVTAEDIERAIRRVMEQGSDVRNRVKEMAEKCHVALTDGGSSKAALRKFIEDVVENVAA
notes: full-length ORF 1,443 bp, 480 aa; pET-32a+ tagged recombinant, E. coli BL21(DE3), Ni-NTA; tag removal not mentioned; gene in tandem cluster Ii4G26670/Ii4G26680/Ii4G26690 (Ii4G26690 = IiUGT71B5c); genome VHIU00000000
As usually defined, the Km is the substrate concentration at which the rate is half of its maximum. Usually Vmax stands for the rate approached at saturating substrate. As a reminder, the kcat is the maximal rate divided by the concentration of active sites. What is called kcat/Km is the second-order rate constant that governs catalysis at low substrate concentration. With B1, in data set [1], the Km turned out to be 61.34 ± 1.48 µM, the Vmax is 2.41e-05 µmol/min, the kcat was 0.0277 s⁻¹ and the kcat/Km was found to be 451 M⁻¹ s⁻¹. Also, in data set [2], the Km stood at 135.48 ± 10.90 µM, the maximal velocity (Vmax) came out at 0.000125 µmol/min, the kcat is 0.143 s⁻¹ and the kcat/Km was 1060 M⁻¹ s⁻¹.

B2: IiUGT71B5a (Isatis tinctoria) (protein)
chain: MKIELVFIPSPGIGHLRSTVELAKQLVNGDDRLSITVIIIPRSSGGDATDSAQISSLFAASQDRLRYETISVADEPTADRLPTQLYIKNQKPQVRDAVAKILDPARVDSPPRLAGFVVDMFCTSMIDLADEFGVPTYMVYTSNATFLGITLHLQLMLDEKKYDTSELDESVNELEFPCLTRPYPVECLPYLFISKEWLPFFMDQARSFRKMKGILVNTVAELEPHALELFSGDDDLPRAYPVGPVLHLESGSDNSNDDGKQSEILRWLDDQPAKSVVFLCFGSMGGFNEEQTREIAVALDRSGHRFLWSLRRASPDILKQGPGDYTDLDEVLPEGFLDRTLERGKIIGWAPQAAVLAKPAIGGFVTHCGWNSMLESLWFGVPMVTWPLYAEQKVNAFVMVEELGLAVEIRRSLKGDLMAGGMETVAAEDIERAIRRVMEQDSDVRNRVKEMAEKCHVALTDGGSSQVALRKFIQDVIENVVV
notes: full-length ORF 1,449 bp, 482 aa; pET-32a+ tagged recombinant, E. coli BL21(DE3), Ni-NTA; tag removal not mentioned; gene in tandem cluster Ii4G26670/Ii4G26680/Ii4G26690 (Ii4G26690 = IiUGT71B5c); genome VHIU00000000
With B2, the Michaelis-Menten constant (Km) in data set [3] amounted to 67.16 ± 2.00 µM; in data set [4], 136.06 ± 6.56 µM; in data set [5], 168.48 ± 9.18 µM; in data set [6], 62.35 ± 1.53 µM; in data set [7], 48.00 ± 0.79 µM; in data set [8], 568.29 ± 16.08 µM. Moreover, the maximal velocity (Vmax) in data set [3] was 6.12e-05 µmol/min; in data set [4], 0.000111 µmol/min; in data set [5], 8.34e-05 µmol/min; in data set [6], 3.5e-05 µmol/min; in data set [7], 0.00049 µmol/min; in data set [8], 0.000141 µmol/min. The kcat in data set [3] turned out to be 0.07 s⁻¹; in data set [4], 0.128 s⁻¹; in data set [5] it was 0.0961 s⁻¹; in data set [6], 0.0403 s⁻¹; in data set [7] it was 0.563 s⁻¹; in data set [8] it was 0.162 s⁻¹. Further, the specificity constant (kcat/Km) stood at 1040 M⁻¹ s⁻¹ in data set [3]; 939 M⁻¹ s⁻¹ in data set [4]; 571 M⁻¹ s⁻¹ in data set [5]; 646 M⁻¹ s⁻¹ in data set [6]; 11700 M⁻¹ s⁻¹ in data set [7]; 285 M⁻¹ s⁻¹ in data set [8].
